Results as given in patent publication US7091311.

Target: murine receptor (mouse) (UniProt Q08351)
Test: cell-based or functional assay

Chain of murine receptor (mouse) (Q08351 26-625): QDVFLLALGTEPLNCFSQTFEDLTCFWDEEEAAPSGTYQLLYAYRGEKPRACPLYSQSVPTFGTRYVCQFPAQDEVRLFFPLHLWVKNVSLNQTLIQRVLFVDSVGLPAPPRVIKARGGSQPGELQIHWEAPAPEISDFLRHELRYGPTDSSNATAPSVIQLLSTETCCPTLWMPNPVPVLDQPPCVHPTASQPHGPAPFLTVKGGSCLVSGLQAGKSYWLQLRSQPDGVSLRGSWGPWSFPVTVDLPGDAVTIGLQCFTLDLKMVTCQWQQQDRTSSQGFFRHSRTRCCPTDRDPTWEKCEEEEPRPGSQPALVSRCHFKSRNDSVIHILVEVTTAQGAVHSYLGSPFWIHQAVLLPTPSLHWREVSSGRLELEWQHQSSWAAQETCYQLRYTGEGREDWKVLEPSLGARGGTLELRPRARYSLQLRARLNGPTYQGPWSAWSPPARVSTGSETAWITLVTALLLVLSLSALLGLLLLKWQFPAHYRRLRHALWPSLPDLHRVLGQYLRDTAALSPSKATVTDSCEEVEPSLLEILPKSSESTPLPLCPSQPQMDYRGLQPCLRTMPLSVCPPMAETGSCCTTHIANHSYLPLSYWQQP

Substance: recombinant human TPO (from UniProt P40225 22-353) (ligand)
- colonies of 3-5 large cells, mouse marrow in methylcellulose, 1 nM TPO #1-1: 15 colonies
- colonies of 3-5 large cells, mouse marrow in methylcellulose, 1 nM TPO #1-2: 12 colonies
- colonies of 3-5 large cells, mouse marrow in methylcellulose, 1 nM TPO #2-1: 16 colonies
- colonies of 3-5 large cells, mouse marrow in methylcellulose, 1 nM TPO #2-2: 13 colonies
- colonies of 6-12 large cells, mouse marrow in methylcellulose, 1 nM TPO #1-1: 6 colonies
- colonies of 6-12 large cells, mouse marrow in methylcellulose, 1 nM TPO #1-2: 1 colonies
- colonies of 6-12 large cells, mouse marrow in methylcellulose, 1 nM TPO #2-1: 8 colonies
- colonies of 6-12 large cells, mouse marrow in methylcellulose, 1 nM TPO #2-2: 3 colonies
